In the RNAGym collection of RNA variant scans (doi:10.1073/pnas.2313332121):

B1: TPR t1 (parent)
chain: GACCAAUCUGCCCUCAGAGCUCGAGAACAUCUUCGGAUGCAGAGGAGGCAGGCUUCGGUGGCGCGAUAGCGCCAACGUCCUCAACCUCCAAUGCAUCCCACCACAUGAUGAUGCCUGAAGAGCCUUGGUUUUUUG

Variants of: B1
Assay: polymerase ribozyme fitness, log enrichment relative to wild type (log ratio); higher = more active; in vitro selection for triplet polymerase activity
Procedure, shortened: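 The heterodimeric triplet polymerase ribozyme's subunits were each mutagenized into PCR-built libraries and transcribed. Every library was selected once, in triplicate, by annealing with a biotinylated primer, the partner subunit and triplets, incubating frozen at −7 °C, gel-excising extended constructs, capturing on streptavidin beads and running RT-PCR. Input and output libraries were Illumina-sequenced, with genotypes kept only at ≥10 input reads and ≥1 read per output. Fitness, from inverse-variance-weighted replicate averages, is the base-2 logarithm of genotype enrichment over wild-type enrichment.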

Row | Variant | polymerase ribozyme fitness (log ratio)
1 | U106C G127C | -1.07
2 | C34U G117A | -5.61
3 | C34A A37G | -2.73
4 | C76U U78G | -0.0426
5 | G39A C102A | -2.49
6 | C12A A46C U59A | -0.649
7 | G39A A118U | 0.354
8 | C20A C56A C98U | -3.64
9 | A5C C97G U112A G122U | -5.96
10 | A68G C85A | -4.94
11 | C3G C13A A95C | -4.35
12 | C53U U78C C89U A95G C101G C114U U125A G128A | -5.82
13 | C56G G71A G110U G117A | -5.02
14 | G42A C94G | -3.05
15 | U54C G57U C115G | -1.53
16 | A6G C13U G51U C82U C94A A111G | -3.66
17 | G47A U54C U59A | -0.546
18 | U9A C114U G120A C123U | -2.11
19 | A46U G52U C104U G110A | -3.02
20 | C72U A121U | 1.5
21 | C28U G63A | -3.62
22 | A24U C88G | -5.62
23 | G19A A46C U125A | -3.96
24 | U78C U96A | -0.969

Row | Variant | polymerase ribozyme fitness (log ratio)
25 | A6U G48U C72U C94U A111C | -0.448
26 | C56U C79U U92C U112A | -0.412
27 | G113U G122C C123A | -2.42
28 | G42C G61C C79U A90C C115G G120U G122A | -4.78
29 | C49U G52C G63U C124A | -0.717
30 | C12G G110U | -1.12
31 | C8G A18C C40U C72A C123G | 0.381
32 | U38G C56U C79G U81G U96C C104A G110C | -5.98
33 | C88G U92A | -4.09
34 | A24G A29U G47A A74G U87A U109G | -6.31
35 | A5U U81G G93A U106A C123U | -3.99
36 | C12U G39A C56A G71A | -4.31
37 | C123U U132A | 2.23
38 | G10A A74G A119U | -0.71
39 | C4A C20A | -4.2
40 | G71C G117A | -1.82
41 | A24G U78C | -1.32
42 | C12U G39U G61C C88G | -3.48
43 | C40U C98G | -6.34
44 | A5U C49G C70A | -3.06
45 | C12A C89G C114A | -4.11
46 | A18G G63C | -2.89
47 | A90G A121C | 1.62
48 | A2U C73A U78A U87C C124A U126A | -1.46

Row | Variant | polymerase ribozyme fitness (log ratio)
49 | G10A G42U C72A C76G C115A | -3.07
50 | C3G A111C | -1.69
51 | A5U U33G C76A C80A A83C G113U A119U | -6.4
52 | C13U A50U G77C | -1
53 | U7A C70A G71A | -2.52
54 | A50G C53A C73U | 0.0786
55 | U9C G10C C62G C72A A111G U125C | -4.6
56 | C11A C49A U59A A68G A91G | -6.83
57 | A100U G113U C124U | -3.92
58 | G47U G110U U134A | -2.33
59 | G47A G77U | -0.132
60 | G48U C64U | -0.368
61 | G60U C80A | -3.33
62 | A6C U38A C115A | -1.35
63 | G69U C99A A111C | -2.81
64 | A46U G77A G127C | -2.57
65 | A100C C104U A121G | 1.96
66 | G47A A50G | -1.37
67 | G39A C86A C123A | -1.81
68 | G10A G51U C101A | -4.71
69 | C4A A50G C70U A84C C115A | -2.59
70 | C22U G57U | -4.03
71 | A26U C34U U59C C85A G113A G127U | -6.04
72 | C64U C79A G110A | -3.21

Row | Variant | polymerase ribozyme fitness (log ratio)
73 | A5U C13G G44C | -2.74
74 | C13A A18C C94G C114U | -5.11
75 | C3U A6U | 0.0323
76 | C8G A37G G71A C123A U133G | 1.08
77 | C13A G63A C72U G127C | -3.45
78 | G10A A18U A118U | -1.34
79 | C80A A84C | -3.11
80 | C13G C73A A90C U92C U126A | -5.92
81 | C15A G77U G122A C123A | -2.19
82 | G48U C76U C89G C124U G128U U132C | -2.96
83 | U7G U14G C34G C72U | -5.84
84 | A46U C79U | -2.22
85 | C13A G120C | -0.417
86 | A5C U87C C88A G120U | -0.6
87 | C8G U132A | 0.53
88 | U7A G122U | -1.47
89 | G17A U21A G36U A41U A84C C97U C124A | -6.13
90 | C3U U9A G69C C82A | -1.37
91 | C12G C76A U116A | -3.37
92 | A91C C104U C123U | 0.398
93 | C11U C12U A29U G110U G122C C123A | -0.893
94 | C11U C56G | -1.1
95 | G45C G71U A91G C101U G110A | -5.08
96 | C76G C88G | -1.08

Row | Variant | polymerase ribozyme fitness (log ratio)
97 | G19U C115G U130G | -5.08
98 | C34U C94G | -5.95
99 | A6U C11U C80U C102U | -3.5
100 | C8A C34A G42U | -4.61
101 | C15G G45C C102A G113U G122A | -5.64
102 | C11U C15A C56G G69U | -2.64
103 | A37U G113U | -3.11
104 | G58A C99U G122A | -5.04
105 | C8U G36U G58C A91C U96C A111U A121U | -5.93
106 | G71C C80U | -4.42
107 | G61U C101U A119G C124G | 1.72
108 | C13A C49U | -1.33
109 | G48U C49U C73G G120U | 0.0945
110 | C8G G17C A29U U87G G120A | -2.2
111 | C11G C22U G61A A66C | -3.92
112 | C31U G63C | -5.08
113 | C8A A24G C28A A84C A121U | -3.25
114 | A46C G63U | -2.01
115 | G39C C76U U126G | -2.72
116 | A46U G110U | -2.33
117 | C53U A111G | 0.578
118 | C56G G120U | -0.0956
119 | A5U A74C G122A | -1.42
120 | G61A G117C | -2.99

Row | Variant | polymerase ribozyme fitness (log ratio)
121 | C40U A41G G44A U59G G60U U112A | 0.462
122 | U30C G63A C124G | -3.09
123 | C56U U116A G117C | -1.64
124 | A18C C89G C114A U130A | -3.2
125 | C15G A27G A95G G110U | -5.6
126 | C11A G47A | -3.21
127 | C11G C79A G120C | 1.11
128 | C8G G69A C88A | -2.65
129 | C13U G63U C86A U112A | -1.22
130 | A46C U112A | 0.587
131 | C40A G117U | -4.5
132 | C62U C123A | 0.98
133 | C28U C73G | -2.44
134 | G10C A37U A84G C85A C94U C101G | -4.54
135 | G60C U78A G110A A111U C124A U133A | -2.76
136 | A2G U78C | -0.357
137 | A5C C73G C86G C99U G110A U112G | -7.21
138 | A5G C13U A46U C56A | -0.813
139 | C56G G61U | -2.32
140 | G17U C62A | -2.83
141 | C11G U96A | -0.629
142 | G39A C56A G71C C124A | -5.6
143 | U7G G48U U59C C86G | -1.39
144 | G45U G69A U78C U87G A111U | -6.45

Row | Variant | polymerase ribozyme fitness (log ratio)
145 | A16U C70U | -1.98
146 | G58C G63C C82A U106G G113U | -5.77
147 | A2U C64U | -2
148 | G44U | -1.16
149 | C12A C56A | -1.02
150 | C15G G39U C73G U112A G122U | -2.91
151 | C40U A41C G48U C56U G58C G63U | -3.13
152 | C8G U96C | 0.587
153 | A5C C15A | -1.17
154 | G60U A75U G117C | -3.72
155 | G44C G63A C85U G110C | -7.22
156 | A2C U14G A37C C49G G60C U96A A111U | -6.59
157 | G52U C70U G113U | -5.82
158 | C70U C114G | -3.48
159 | U33G C82A | -5.59
160 | A18C G48U G57U | -2.85
161 | U81C G117A A119U | -3.73
162 | C62G U130A | -1.59
163 | G47U C79G A100G C114G | -6.83
164 | A6G G63U | -1.16
165 | C20U G44A G45U | -3.42
166 | C12U A84C | 0.463
167 | C20G C34U G63A C79U C99U A111C | -5.53
